Among the data in US20210388110A1 (published 2021) are Kd values, retold here.

In the assay the target is T1, soluble human GPC3 (human, UniProt P51654 25-563, limits assumed).
T1 construct: soluble human GPC3 as analyte; also called glypican 3
In words: SPR (Biacore), soluble human GPC3. (SPR reads the build-up and loss of mass on a sensor chip optically.)

Changes are numbered by the printed parent chain.

T1 sequence (P51654 other isoform, or with tags, fused parts or gaps limits assumed, form in doubt): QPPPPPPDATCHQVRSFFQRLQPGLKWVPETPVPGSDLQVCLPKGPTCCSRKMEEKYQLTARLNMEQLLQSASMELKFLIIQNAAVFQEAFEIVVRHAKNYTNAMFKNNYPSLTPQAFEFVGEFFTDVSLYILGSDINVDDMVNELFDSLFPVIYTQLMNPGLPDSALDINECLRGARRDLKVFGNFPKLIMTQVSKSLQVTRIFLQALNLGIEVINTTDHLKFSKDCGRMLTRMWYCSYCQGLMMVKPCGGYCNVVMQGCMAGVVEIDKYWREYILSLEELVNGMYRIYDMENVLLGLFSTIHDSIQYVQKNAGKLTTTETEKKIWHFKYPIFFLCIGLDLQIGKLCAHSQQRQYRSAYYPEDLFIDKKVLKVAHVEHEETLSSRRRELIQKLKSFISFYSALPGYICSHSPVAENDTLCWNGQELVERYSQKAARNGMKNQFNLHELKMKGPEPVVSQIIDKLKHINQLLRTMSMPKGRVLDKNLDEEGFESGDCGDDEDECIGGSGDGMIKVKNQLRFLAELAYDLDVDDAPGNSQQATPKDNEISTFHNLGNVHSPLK

B1: GCH054-G1dh/none-Hi-Kn010G3/L0222-k0 (antibody, human IgG1, kappa)
heavy: not shown
chain: EPKSSDKTHTCPPCPAPELLGGPSVFLFPPKPKDTLMISRTPEVTCVVVDVSHEDPEVKFNWYVDGVEVHNAKTKPREEQYNSTYRVVSVLTVLHQDWLNGKEYKCKVSNKALPAPIEKTISKAKGQPREPQVCTLPPSRDELTKNQVSLWCLVKGFYPSDIAVEWESNGQPENNYKTTPPVLDSDGSFFLYSKLTVDKSRWQQGNVFSCSVMHEALHNRYTQKSLSLSP
light: DIVMTQSPLSLPVTPGEPASISCRSSQSPVHSNRNTYIQWYQQKPGQAPRLLIYKVSNRFSGVPDRFSGSGSGTDFTLKISRVEAEDVGVYYCYQGTQVPYTFGQGTKLEIKRTVAAPSVFIFPPSDEQLKSGTASVVCLLNNFYPREAKVQWKVDNALQSGNSQESVTEQDSKDSTYSLSSTLTLSKADYEKHKVYACEVTHQGLSSPVTKSFNRGEC
notes: single-arm (one Fab)
By Kd is commonly meant the equilibrium constant for the complex coming apart. Read a low Kd as higher affinity. As for B1, binding was characterised by a dissociation constant (Kd) of 0.0315 nM.

B2: GCH073-G1dh/none-Hi-Kn010G3/L0000-k0 (antibody, human IgG1, kappa)
heavy: not shown
chain: B1 chain
light: B1 light with P29L, I38L, Q39H, Y94G
notes: single-arm (one Fab)
B2 came in with a Kd of 2 nM. This Kd is about 63-fold higher than that of the molecule before.

B3: GCH099-G1dh/none-Hi-Kn010G3/L0011-k0 (antibody, human IgG1, kappa)
heavy: not shown
chain: B1 chain
light: B1 light with S28P, P29L, I38L, Q39H, Y94G
notes: single-arm (one Fab)
The molecule B3 registered a Kd of 2.78 nM.

B4: GCH065-G1dh/none-Hi-Kn010G3/L0000-k0 (antibody, human IgG1, kappa)
heavy: not shown
chain: B1 chain
light: B1 light with P29L, I38L, Q39H, Y94G
notes: single-arm (one Fab)
B4 returned a Kd of 1.41 nM.

B5: GCH056-G1dh/none-Hi-Kn010G3/L0215-k0 (antibody, human IgG1, kappa)
heavy: not shown
chain: B1 chain
light: B1 light with S28P, Q39H, Y94G
notes: single-arm (one Fab)
In turn, B5 came in with a Kd of 1.59 nM.

B6: GCH054-G1dh/none-Hi-Kn010G3/TR01L018-k0 (antibody, human IgG1, kappa)
heavy: not shown
chain: B1 chain
light: B1 light with R24Q, S25A, Q27E, I38L, Q39H, Q42L, A48S, R50Q, Y94G
notes: single-arm (one Fab)
For the molecule B6, binding was put at a Kd of 2.59 nM.

B7: GCH062-G1dh/none-Hi-Kn010G3/L0000-k0 (antibody, human IgG1, kappa)
heavy: not shown
chain: B1 chain
light: B1 light with P29L, I38L, Q39H, Y94G
notes: single-arm (one Fab)
For B7, the Kd is 3.73 nM.

B8: GCH099-G1dh/none-Hi-Kn010G3/L0201-k0 (antibody, human IgG1, kappa)
heavy: not shown
chain: B1 chain
light: B1 light with S28P, I38L, Q39H, Y94G
notes: single-arm (one Fab)
Regarding B8, the affinity, expressed as Kd, was 1.29 nM.

B9: GCH100-G1dh/none-Hi-Kn010G3/L0201-k0 (antibody, human IgG1, kappa)
heavy: not shown
chain: B1 chain
light: B1 light with S28P, I38L, Q39H, Y94G
notes: single-arm (one Fab)
Turning to B9, the Kd amounted to 1.37 nM.

B10: GCH098-G1dh/none-Hi-Kn010G3/L0011-k0 (antibody, human IgG1, kappa)
heavy: not shown
chain: B1 chain
light: B1 light with S28P, P29L, I38L, Q39H, Y94G
notes: single-arm (one Fab)
The molecule B10 had a Kd of 0.802 nM.

B11: GCH055-G1dh/none-Hi-Kn010G3/L0215-k0 (antibody, human IgG1, kappa)
heavy: not shown
chain: B1 chain
light: B1 light with S28P, Q39H, Y94G
notes: single-arm (one Fab)
Turning to B11, the Kd came out at 1.52 nM.

B12: GCH099-G1dh/none-Hi-Kn010G3/L0000-k0 (antibody, human IgG1, kappa)
heavy: not shown
chain: B1 chain
light: B1 light with P29L, I38L, Q39H, Y94G
notes: single-arm (one Fab); printed with a small k in Hi-kn010G3
On to B12, for which the Kd came to 4.24 nM.

B13: GCH054-G1dh/none-Hi-Kn010G3/TR01L015-k0 (antibody, human IgG1, kappa)
heavy: not shown
chain: B1 chain
light: B1 light with I38L, Q39H, Q42L, A48S, R50Q, Y94G
notes: single-arm (one Fab)
Turning to B13, the Kd came out at 2.45 nM.

B14: GCH073-G1dh/none-Hi-Kn010G3/L0201-k0 (antibody, human IgG1, kappa)
heavy: not shown
chain: B1 chain
light: B1 light with S28P, I38L, Q39H, Y94G
notes: single-arm (one Fab)
B14: the affinity, expressed as Kd, was 0.035 nM.

B15: GCH094-G1dh/none-Hi-Kn010G3/L0272-k0 (antibody, human IgG1, kappa)
heavy: not shown
chain: B1 chain
light: B1 light with S28P, P29L, N35Q, I38L, Q39H, Y94G
notes: single-arm (one Fab)
B15 yielded a Kd of 2.1 nM.

B16: GCH065-G1dh/none-Hi-Kn010G3/L0262-k0 (antibody, human IgG1, kappa)
heavy: not shown
chain: B1 chain
light: B1 light with S28P, I38L, Q39H, Y94A
notes: single-arm (one Fab)
B16: the Kd worked out at 0.0118 nM.

B17: GCH094-G1dh/none-Hi-Kn010G3/L0201-k0 (antibody, human IgG1, kappa)
heavy: not shown
chain: B1 chain
light: B1 light with S28P, I38L, Q39H, Y94G
notes: single-arm (one Fab)
The molecule B17 returned a Kd of 1.17 nM.

B18: GCH098-G1dh/none-Hi-Kn010G3/L0201-k0 (antibody, human IgG1, kappa)
heavy: not shown
chain: B1 chain
light: B1 light with S28P, I38L, Q39H, Y94G
notes: single-arm (one Fab)
As for B18, binding was put at a Kd of 0.111 nM.

B19: GCH056-G1dh/none-Hi-Kn010G3/L0201-k0 (antibody, human IgG1, kappa)
heavy: not shown
chain: B1 chain
light: B1 light with S28P, I38L, Q39H, Y94G
notes: single-arm (one Fab)
The molecule B19 showed a Kd of 1.16 nM.

B20: GCH057-G1dh/none-Hi-Kn010G3/L0222-k0 (antibody, human IgG1, kappa)
heavy: not shown
chain: B1 chain
light: B1 light
notes: single-arm (one Fab)
With B20, the Kd is 0.00185 nM.

B21: GCH056-G1dh/none-Hi-Kn010G3/L0262-k0 (antibody, human IgG1, kappa)
heavy: not shown
chain: B1 chain
light: B1 light with S28P, I38L, Q39H, Y94A
notes: single-arm (one Fab)
With B21, the Kd turned out to be 0.0119 nM.

B22: GCH055-G1dh/none-Hi-Kn010G3/L0200-k0 (antibody, human IgG1, kappa)
heavy: not shown
chain: B1 chain
light: B1 light with S25P, I38L, Q39H, Y94G
notes: single-arm (one Fab)
B22 showed a Kd of 1.13 nM.

B23: GCH054-G1dh/none-Hi-Kn010G3/TR01L016-k0 (antibody, human IgG1, kappa)
heavy: not shown
chain: B1 chain
light: B1 light with I38L, Q39H, Q42L, A48S, R50Q
notes: single-arm (one Fab)
The molecule B23 displayed a Kd of 0.763 nM.

B24: GCH060-G1dh/none-Hi-Kn010G3/L0222-k0 (antibody, human IgG1, kappa)
heavy: not shown
chain: B1 chain
light: B1 light
notes: single-arm (one Fab)
Consider B24, for which binding was put at a Kd of 0.000642 nM.

B25: GCH094-G1dh/none-Hi-Kn010G3/L0270-k0 (antibody, human IgG1, kappa)
heavy: not shown
chain: B1 chain
light: B1 light with P29L, N35Q, I38L, Q39H, Y94G
notes: single-arm (one Fab)
Consider B25, for which the affinity, expressed as Kd, was 3.6 nM.

B26: GCH094-G1dh/none-Hi-Kn010G3/L0246-k0 (antibody, human IgG1, kappa)
heavy: not shown
chain: B1 chain
light: B1 light with Y94S
notes: single-arm (one Fab)
In turn, B26 registered a Kd of 0.00412 nM. Against the preceding molecule, the Kd is about 870-fold lower.

B27: GCH094-G1dh/none-Hi-Kn010G3/L0011-k0 (antibody, human IgG1, kappa)
heavy: not shown
chain: B1 chain
light: B1 light with S28P, P29L, I38L, Q39H, Y94G
notes: single-arm (one Fab)
In the case of B27, the Kd was 3.88 nM.

B28: GCH065-G1dh/none-Hi-Kn010G3/L0201-k0 (antibody, human IgG1, kappa)
heavy: not shown
chain: B1 chain
light: B1 light with S28P, I38L, Q39H, Y94G
notes: single-arm (one Fab)
In turn, B28 came in with a Kd of 0.0774 nM.

B29: GCH054-G1dh/none-Hi-Kn010G3/L0246-k0 (antibody, human IgG1, kappa)
heavy: not shown
chain: B1 chain
light: B1 light with Y94S
notes: single-arm (one Fab)
For the molecule B29, the dissociation constant (Kd) was determined as 0.0315 nM.

B30: GCH065-G1dh/none-Hi-Kn010G3/L0011-k0 (antibody, human IgG1, kappa)
heavy: not shown
chain: B1 chain
light: B1 light with S28P, P29L, I38L, Q39H, Y94G
notes: single-arm (one Fab)
With B30, binding was put at a Kd of 0.884 nM.

B31: GCH073-G1dh/none-Hi-Kn010G3/L0011-k0 (antibody, human IgG1, kappa)
heavy: not shown
chain: B1 chain
light: B1 light with S28P, P29L, I38L, Q39H, Y94G
notes: single-arm (one Fab)
Take B31: the Kd was determined as 0.91 nM.

B32: GCH065-G1dh/none-Hi-Kn010G3/L0272-k0 (antibody, human IgG1, kappa)
heavy: not shown
chain: B1 chain
light: B1 light with S28P, P29L, N35Q, I38L, Q39H, Y94G
notes: single-arm (one Fab)
B32 returned a Kd of 0.393 nM.

B33: GCH054-G1dh/none-Hi-Kn010G3/L0249-k0 (antibody, human IgG1, kappa)
heavy: not shown
chain: B1 chain
light: B1 light with S25P, Y94S
notes: single-arm (one Fab)
In the case of B33, the affinity, expressed as Kd, was 0.00361 nM.

B34: GCH060-G1dh/none-Hi-Kn010G3/L0200-k0 (antibody, human IgG1, kappa)
heavy: not shown
chain: B1 chain
light: B1 light with S25P, I38L, Q39H, Y94G
notes: single-arm (one Fab)
Turning to B34, the Kd came to 1.34 nM.

B35: GCH054-G1dh/none-Hi-Kn010G3/L0262-k0 (antibody, human IgG1, kappa)
heavy: not shown
chain: B1 chain
light: B1 light with S28P, I38L, Q39H, Y94A
notes: single-arm (one Fab)
As for B35, binding was put at a Kd of 0.000525 nM.

B36: GCH055-G1dh/none-Hi-Kn010G3/L0222-k0 (antibody, human IgG1, kappa)
heavy: not shown
chain: B1 chain
light: B1 light
notes: single-arm (one Fab)
For B36, the Kd is 0.0039 nM.

B37: GCH064-G1dh/none-Hi-Kn010G3/L0000-k0 (antibody, human IgG1, kappa)
heavy: not shown
chain: B1 chain
light: B1 light with P29L, I38L, Q39H, Y94G
notes: single-arm (one Fab)
On to B37, for which the Kd came to 4.14 nM.

B38: GCH066-G1dh/none-Hi-Kn010G3/L0000-k0 (antibody, human IgG1, kappa)
heavy: not shown
chain: B1 chain
light: B1 light with P29L, I38L, Q39H, Y94G
notes: single-arm (one Fab)
On to B38, for which binding was characterised by a dissociation constant (Kd) of 4.29 nM.

B39: GCH054-G1dh/none-Hi-Kn010G3/TR01L019-k0 (antibody, human IgG1, kappa)
heavy: not shown
chain: B1 chain
light: B1 light with R24Q, S25A, Q27E, I38L, Q39H, Q42L, A48S, R50Q
notes: single-arm (one Fab)
The molecule B39 had a Kd of 0.871 nM.

B40: GCH098-G1dh/none-Hi-Kn010G3/L0000-k0 (antibody, human IgG1, kappa)
heavy: not shown
chain: B1 chain
light: B1 light with P29L, I38L, Q39H, Y94G
notes: single-arm (one Fab)
Molecule B40 gave a Kd of 1.77 nM.

B41: GCH094-G1dh/none-Hi-Kn010G3/L0271-k0 (antibody, human IgG1, kappa)
heavy: not shown
chain: B1 chain
light: B1 light with S28P, N35Q, I38L, Q39H, Y94G
notes: single-arm (one Fab)
As to B41, the affinity, expressed as Kd, was 0.692 nM.

B42: GCH100-G1dh/none-Hi-Kn010G3/L0011-k0 (antibody, human IgG1, kappa)
heavy: not shown
chain: B1 chain
light: B1 light with S28P, P29L, I38L, Q39H, Y94G
notes: single-arm (one Fab)
The molecule B42 showed a Kd of 3.81 nM.

B43: GCH057-G1dh/none-Hi-Kn010G3/L0215-k0 (antibody, human IgG1, kappa)
heavy: not shown
chain: B1 chain
light: B1 light with S28P, Q39H, Y94G
notes: single-arm (one Fab)
Turning to B43, the Kd worked out at 1.83 nM.

B44: GCH055-G1dh/none-Hi-Kn010G3/L0212-k0 (antibody, human IgG1, kappa)
heavy: not shown
chain: B1 chain
light: B1 light with S25P, I38L, Q39H
notes: single-arm (one Fab)
In turn, B44 returned a Kd of 0.614 nM.
